Measurements taken from paper PMC6135645.

Biological target: Light-Harvesting Complex II (LHCII), trimeric (spinach (endogenous in spinach leaves))
Assay: native gel or EMSA; non-denaturing Clear Native PAGE (NativePAGE Novex 4-16% Bis-Tris), Coomassie staining; LHCII in α-DDM after sucrose gradient and size-exclusion chromatography

**Q.** Which stoichiometry N does the source give for “Light-Harvesting Complex II (LHCII), trimeric” here?
**A.** 3
